{"source": "patent US10941182", "about": "(Amgen, dated 2021)", "binders": {"B1": {"name": "SEQ ID NO: 506 (peptide)", "peptide": "Hexanoyl-[γGlu][AEEA][AEEA][AEEA][hArg]Q[hArg]P[NMeR][Cha]SHKG[Oic][Nle]P[Phe(4-Cl)]-OH", "SMILES": "CCCCCC(=O)N[C@@H](CCC(=O)NCCOCCOCC(=O)NCCOCCOCC(=O)NCCOCCOCC(=O)N[C@@H](CCCCNC(=N)N)C(=O)N[C@@H](CCC(N)=O)C(=O)N[C@@H](CCCCNC(=N)N)C(=O)N1CCC[C@H]1C(=O)N(C)[C@@H](CCCNC(=N)N)C(=O)N[C@@H](CC1CCCCC1)C(=O)N[C@@H](CO)C(=O)N[C@@H](Cc1c[nH]cn1)C(=O)N[C@@H](CCCCN)C(=O)NCC(=O)N1[C@H](C(=O)N[C@@H](CCCC)C(=O)N2CCC[C@H]2C(=O)N[C@@H](Cc2ccc(Cl)cc2)C(=O)O)C[C@@H]2CCCC[C@@H]21)C(=O)O"}, "B2": {"name": "SEQ ID NO: 562 (peptide)", "peptide": "Hexanoyl-[AC4Abu][AEEA][AEEA]QRP[NMeR][Cha]SHKG[Oic][Nle][Aib][Phe(4-Cl)]-OH", "SMILES": "CCCCCC(=O)NCCC(C(=O)O)C(=O)NCCOCCOCC(=O)NCCOCCOCC(=O)N[C@@H](CCC(N)=O)C(=O)N[C@@H](CCCNC(=N)N)C(=O)N1CCC[C@H]1C(=O)N(C)[C@@H](CCCNC(=N)N)C(=O)N[C@@H](CC1CCCCC1)C(=O)N[C@@H](CO)C(=O)N[C@@H](Cc1c[nH]cn1)C(=O)N[C@@H](CCCCN)C(=O)NCC(=O)N1[C@H](C(=O)N[C@@H](CCCC)C(=O)NC(C)(C)C(=O)N[C@@H](Cc2ccc(Cl)cc2)C(=O)O)C[C@@H]2CCCC[C@@H]21"}, "B3": {"name": "SEQ ID NO: 62 (peptide)", "peptide": "Ac-RQRPRLSHKGP[Nle]P[dBip]-OH", "SMILES": "CCCC[C@H](NC(=O)[C@@H]1CCCN1C(=O)CNC(=O)[C@H](CCCCN)NC(=O)[C@H](Cc1c[nH]cn1)NC(=O)[C@H](CO)NC(=O)[C@H](CC(C)C)NC(=O)[C@H](CCCNC(=N)N)NC(=O)[C@@H]1CCCN1C(=O)[C@H](CCCNC(=N)N)NC(=O)[C@H](CCC(N)=O)NC(=O)[C@H](CCCNC(=N)N)NC(C)=O)C(=O)N1CCC[C@H]1C(=O)N[C@H](Cc1ccc(-c2ccccc2)cc1)C(=O)O"}, "B4": {"name": "SEQ ID NO: 286 (peptide)", "peptide": "Hexanoyl-[γGlu][AEEA][AEEA][hArg][dR]Q[hArg]P[dR][NMeL]SHKG[Oic][Phe(4-I)]P[dBip]-OH", "SMILES": "CCCCCC(=O)N[C@@H](CCC(=O)NCCOCCOCC(=O)NCCOCCOCC(=O)N[C@@H](CCCCNC(=N)N)C(=O)N[C@H](CCCNC(=N)N)C(=O)N[C@@H](CCC(N)=O)C(=O)N[C@@H](CCCCNC(=N)N)C(=O)N1CCC[C@H]1C(=O)N[C@H](CCCNC(=N)N)C(=O)N(C)[C@@H](CC(C)C)C(=O)N[C@@H](CO)C(=O)N[C@@H](Cc1c[nH]cn1)C(=O)N[C@@H](CCCCN)C(=O)NCC(=O)N1[C@H](C(=O)N[C@@H](Cc2ccc(I)cc2)C(=O)N2CCC[C@H]2C(=O)N[C@H](Cc2ccc(-c3ccccc3)cc2)C(=O)O)C[C@@H]2CCCC[C@@H]21)C(=O)O"}, "B5": {"name": "SEQ ID NO: 112 (peptide)", "peptide": "QRPRLSHKGPXPF", "modifications": "{H2}[MerPr](10K mPEG acetamide)Q[hArg]P[NMeArg][aMeLeu]SHKGP[Nle]P[4-Cl-F]{COOH}"}, "B6": {"name": "SEQ ID NO: 576 (peptide)", "peptide": "Heptadecanoyl-[AC4Abu][AEEA][AEEA][dQ]RP[NMeR][Cha]SHKG[Oic][Nle]P[dPhe(4-Cl)]-OH", "SMILES": "CCCCCCCCCCCCCCCCC(=O)NCCC(C(=O)O)C(=O)NCCOCCOCC(=O)NCCOCCOCC(=O)N[C@H](CCC(N)=O)C(=O)N[C@@H](CCCNC(=N)N)C(=O)N1CCC[C@H]1C(=O)N(C)[C@@H](CCCNC(=N)N)C(=O)N[C@@H](CC1CCCCC1)C(=O)N[C@@H](CO)C(=O)N[C@@H](Cc1c[nH]cn1)C(=O)N[C@@H](CCCCN)C(=O)NCC(=O)N1[C@H](C(=O)N[C@@H](CCCC)C(=O)N2CCC[C@H]2C(=O)N[C@H](Cc2ccc(Cl)cc2)C(=O)O)C[C@@H]2CCCC[C@@H]21"}}, "note": "Starred links: 1 amine or outer side, 2 acyl side, 3 side chain; linkers in the order of their positions; H or OH if unused. Non-standard residues stand in square brackets, D forms with d. Primed or numbered codes have the meaning given here. *: point of attachment. AC4Abu = α-carboxy-4-aminobutyric acid, O=C(C(CCN[*:1])C(=O)[*:3])[*:2]; dBip = N[C@H](Cc1ccc(-c2ccccc2)cc1)C(=O)O; Oic = O=C(O)[C@@H]1C[C@@H]2CCCC[C@@H]2N1; Phe(4-Cl) = N[C@@H](Cc1ccc(Cl)cc1)C(=O)O; dPhe(4-Cl) = N[C@H](Cc1ccc(Cl)cc1)C(=O)O; Heptadecanoyl = CCCCCCCCCCCCCCCCC(=O)*; Phe(4-I) = N[C@@H](Cc1ccc(I)cc1)C(=O)O; γGlu = O=C(O)[C@H](CCC(=O)[*:2])N[*:1]; NMeR = CN[C@@H](CCCNC(=N)N)C(=O)O; hArg = N=C(N)NCCCC[C@H](N)C(=O)O; Cha = N[C@@H](CC1CCCCC1)C(=O)O; NMeL = CN[C@@H](CC(C)C)C(=O)O; Nle = CCCC[C@H](N)C(=O)O; Pip′ = not defined here; Hexanoyl = CCCCCC(=O)*; AEEA = NCCOCCOCC(=O)O; Aib = CC(C)(N)C(=O)O; Mpa = O=C(O)CCS"}
{"biological_target": "T1, human APJ receptor (human, UniProt P35414 1-380)", "T1 sequence (looked up)": "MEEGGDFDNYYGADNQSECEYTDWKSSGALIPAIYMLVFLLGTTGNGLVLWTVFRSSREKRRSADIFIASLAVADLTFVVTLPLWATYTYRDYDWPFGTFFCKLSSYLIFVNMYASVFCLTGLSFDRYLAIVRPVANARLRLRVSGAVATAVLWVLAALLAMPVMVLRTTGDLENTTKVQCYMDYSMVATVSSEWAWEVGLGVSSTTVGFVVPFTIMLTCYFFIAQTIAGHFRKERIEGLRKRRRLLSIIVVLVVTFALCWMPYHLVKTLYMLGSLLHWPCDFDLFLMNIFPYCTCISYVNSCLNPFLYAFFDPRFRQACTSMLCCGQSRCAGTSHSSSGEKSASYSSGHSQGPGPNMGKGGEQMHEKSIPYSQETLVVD", "assay": "cell-based or functional assay", "units": {"EC50 Human APJ Receptor": "nM"}}
{"binder": "KLRKHNXLQRRXMPLHSRVPFP ({H2}KLRKHN[Abu]LQRR[Abu]MPLHSRVPFP{COOH})", "note": "[SEQ ID NO: 14]", "EC50 Human APJ Receptor": 0.301}
{"binder": "B1", "EC50 Human APJ Receptor": 3.49}
{"binder": "B2", "EC50 Human APJ Receptor": 3.85}
{"binder": "XXXQRPRLSHKGPXPF ({hexanoyl}[AC4Abu][Aeea][Aeea]QR[aMePro][hArg][aMeLeu]SHKGP[Nle]P[4-Cl-F]{COOH})", "note": "[SEQ ID NO: 560]", "EC50 Human APJ Receptor": 0.0553}
{"binder": "XXXQRPRLSHKGPXPF ({HDA}[AC4Abu][Aeea][Aeea]QRP[NMeArg]LSHKGP[Nle]P[4-Cl-F]{COOH})", "note": "[SEQ ID NO: 496]", "EC50 Human APJ Receptor": 0.0874}
{"binder": "B3", "EC50 Human APJ Receptor": 0.303}
{"binder": "{mPEG 10 kDa acetamide}-[Mpa][dQ][hArg]P[NMeR][Cha]SHKG[Oic][Nle]P[dPhe(4-Cl)]-OH (numbers in words are those of the source; also: N-terminus written {H2})", "note": "[SEQ ID NO: 111]", "EC50 Human APJ Receptor": 1100}
{"binder": "XXXQRPRLSHKGPXPF ({Dodecanoyl-NH}[AC4Abu][Aeea][Aeea]QRP[NMeArg]LSHKGP[Nle]P[4-Cl-F]{COOH})", "note": "[SEQ ID NO: 591]", "EC50 Human APJ Receptor": 0.476}
{"binder": "B4", "EC50 Human APJ Receptor": 1.62}
{"binder": "B5", "EC50 Human APJ Receptor": 2.32}
{"binder": "B6", "EC50 Human APJ Receptor": 3.33}
{"binder": "Hexanoyl-[AC4Abu][AEEA][AEEA][hArg][dR]Q[hArg]P[dR][NMeL]SHKG[Pip′][Phe(4-I)]P[dBip]-OH", "note": "[SEQ ID NO: 563]", "EC50 Human APJ Receptor": 4.3}
{"biological_target": "T2, rat APJ receptor (rat, UniProt Q9JHG3 1-377)", "T2 sequence (looked up)": "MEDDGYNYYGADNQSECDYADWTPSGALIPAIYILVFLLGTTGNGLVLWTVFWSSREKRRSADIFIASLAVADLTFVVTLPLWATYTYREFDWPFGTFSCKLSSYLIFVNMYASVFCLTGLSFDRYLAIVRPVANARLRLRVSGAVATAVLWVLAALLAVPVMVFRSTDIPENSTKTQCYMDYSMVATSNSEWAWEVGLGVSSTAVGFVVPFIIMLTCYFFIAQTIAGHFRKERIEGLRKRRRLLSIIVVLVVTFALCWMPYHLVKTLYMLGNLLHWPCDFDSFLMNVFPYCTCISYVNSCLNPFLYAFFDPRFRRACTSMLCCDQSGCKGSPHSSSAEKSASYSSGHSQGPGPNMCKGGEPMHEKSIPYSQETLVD", "assay": "cell-based or functional assay", "units": {"EC50 Rat APJ Receptor": "nM"}}
{"binder": "KLRKHNXLQRRXMPLHSRVPFP ({H2}KLRKHN[Abu]LQRR[Abu]MPLHSRVPFP{COOH})", "note": "[SEQ ID NO: 14]", "EC50 Rat APJ Receptor": 32.4}
{"binder": "B1", "EC50 Rat APJ Receptor": 13.2}
{"binder": "B2", "EC50 Rat APJ Receptor": 16.3}
{"binder": "XXXQRPRLSHKGPXPF ({hexanoyl}[AC4Abu][Aeea][Aeea]QR[aMePro][hArg][aMeLeu]SHKGP[Nle]P[4-Cl-F]{COOH})", "note": "[SEQ ID NO: 560]", "EC50 Rat APJ Receptor": 0.274}
{"binder": "XXXQRPRLSHKGPXPF ({HDA}[AC4Abu][Aeea][Aeea]QRP[NMeArg]LSHKGP[Nle]P[4-Cl-F]{COOH})", "note": "[SEQ ID NO: 496]", "EC50 Rat APJ Receptor": 0.481}
{"binder": "B3", "EC50 Rat APJ Receptor": 3.43}
{"binder": "{mPEG 10 kDa acetamide}-[Mpa][dQ][hArg]P[NMeR][Cha]SHKG[Oic][Nle]P[dPhe(4-Cl)]-OH (numbers in words are those of the source; also: N-terminus written {H2})", "note": "[SEQ ID NO: 111]", "EC50 Rat APJ Receptor": 777}
{"binder": "XXXQRPRLSHKGPXPF ({Dodecanoyl-NH}[AC4Abu][Aeea][Aeea]QRP[NMeArg]LSHKGP[Nle]P[4-Cl-F]{COOH})", "note": "[SEQ ID NO: 591]", "EC50 Rat APJ Receptor": 1.84}
{"binder": "B4", "EC50 Rat APJ Receptor": 3.07}
{"binder": "B5", "EC50 Rat APJ Receptor": 10.4}
{"binder": "B6", "EC50 Rat APJ Receptor": 5.17}
{"binder": "Hexanoyl-[AC4Abu][AEEA][AEEA][hArg][dR]Q[hArg]P[dR][NMeL]SHKG[Pip′][Phe(4-I)]P[dBip]-OH", "note": "[SEQ ID NO: 563]", "EC50 Rat APJ Receptor": 12.7}
